One block for each molecule: values may come before it.
Tests used:
[1] = target: CD23 on SKW6.4 B lymphoma cells (human (endogenous in SKW6.4)) (UniProt P06734); assay: flow cytometry on cells; Alexa Fluor 647-conjugated UB-221, ligelizumab (UBP lot) or omalizumab at 0 to 10 μg/mL mixed with an equal volume of 15 μg/mL human IgE in PBS, 1 hour at room temperature; added to CD23^+ SKW6.4 cells for 30 minutes at 4°C
Omalizumab = assay: SPR; IgG Fc antibodies covalently coupled to the sensor chip captured the anti-IgE mAbs (ligelizumab: Creative Biolabs, TAB755); Expi293-expressed human full-length IgE injected at 0.312–50 nM
Ligelizumab = assay: as above
[2] = target: IgE in sera of patients with atopic dermatitis (human (endogenous in patients' sera)); assay: ELISA; sera of AD patients with high basal IgE (>24,000 ng/mL, n = 10) incubated 1 hour at room temperature with mAb at 0–75,000 ng/mL; remaining free IgE measured on plates coated with FcεRIα-Fcγ
Sequence of IgE in sera of patients with atopic dermatitis (human (endogenous in patients' sera)) (P01854 whole entry): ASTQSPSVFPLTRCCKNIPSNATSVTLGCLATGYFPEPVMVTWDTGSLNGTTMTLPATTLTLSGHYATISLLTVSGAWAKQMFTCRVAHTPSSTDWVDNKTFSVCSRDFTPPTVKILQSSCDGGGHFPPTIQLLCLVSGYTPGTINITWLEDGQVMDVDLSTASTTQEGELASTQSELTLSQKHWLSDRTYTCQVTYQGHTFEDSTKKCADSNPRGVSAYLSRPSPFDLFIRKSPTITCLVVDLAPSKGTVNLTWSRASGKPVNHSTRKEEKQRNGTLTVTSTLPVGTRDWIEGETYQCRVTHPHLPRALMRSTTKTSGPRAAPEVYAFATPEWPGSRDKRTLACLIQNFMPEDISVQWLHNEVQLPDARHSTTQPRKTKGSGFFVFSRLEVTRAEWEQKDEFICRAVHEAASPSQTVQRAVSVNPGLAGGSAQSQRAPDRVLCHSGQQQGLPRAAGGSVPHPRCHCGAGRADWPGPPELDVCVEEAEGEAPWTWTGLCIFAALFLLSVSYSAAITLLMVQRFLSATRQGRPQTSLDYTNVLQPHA

[3] = target: CD23-bound IgE on SKW6.4 cells (human | human (endogenous in SKW6.4)) (UniProt P01854); assay: flow cytometry on cells; CD23^+ SKW6.4 cells with 15 μg/mL human IgE for 30 minutes at 4°C, washed, then UB-221, ligelizumab (UBP lot) or omalizumab at 0–10 μg/mL in PBS for 30 minutes at 4°C; Brilliant Violet 421 anti-human IgG Fc
[4] = target: IgE in sera of patients with atopic dermatitis (human (endogenous in patients' sera)); assay: ELISA; sera of AD patients with low basal IgE (<4,800 ng/mL, n = 9) incubated 1 hour at room temperature with mAb at 0–4,000 ng/mL (ligelizumab: Creative Biolabs TAB-755); remaining free IgE measured on plates coated with FcεRIα-Fcγ

Sequence of UniProt P06734 (P06734 whole entry): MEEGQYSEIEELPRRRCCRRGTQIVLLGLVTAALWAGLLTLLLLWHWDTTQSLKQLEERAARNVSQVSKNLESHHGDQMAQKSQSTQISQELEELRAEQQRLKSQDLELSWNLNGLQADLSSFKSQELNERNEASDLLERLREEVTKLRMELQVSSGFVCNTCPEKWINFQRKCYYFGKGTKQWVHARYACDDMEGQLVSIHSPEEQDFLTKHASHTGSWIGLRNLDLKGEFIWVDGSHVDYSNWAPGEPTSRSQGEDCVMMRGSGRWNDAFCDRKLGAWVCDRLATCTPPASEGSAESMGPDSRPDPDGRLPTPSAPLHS

maximum binding MFI [1]: 191 MFI
Molecule: Preformed ligelizumab-IgE complex (from UniProt P01854 1-546)

maximum binding MFI [1]: 1280 MFI
Molecule: Preformed UB-221–IgE complex (from UniProt P01854 1-546)

Kd (Omalizumab): 0.23 nM
Kd (Ligelizumab): 0.016 nM
Molecule: Expi293-expressed human full-length IgE (from UniProt P01854 1-546) (natural protein)

EC90 [2]: > 25 µg/mL
maximum binding MFI [3]: 503 MFI
EC90 [4]: 1 µg/mL
B1: Ligelizumab (antibody, V domains shown)
VH: QVQLVQSGAEVMKPGSSVKVSCKASGYTFSWYWLEWVRQAPGHGLEWMGEIDPGTFTTNYNEKFKARVTFTADTSTSTAYMELSSLRSEDTAVYYCARFSHFSGSNYDYFDYWGQGTLVTVSS
VL: EIVMTQSPATLSVSPGERATLSCRASQSIGTNIHWYQQKPGQAPRLLIYYASESISGIPARFSGSGSGTEFTLTISSLQSEDFAVYYCQQSWSWPTTFGGGTKVEIK

From publication PMC9337824
